Tested on: Escherichia coli TOP10
Assay: shrunken log2 fold change of peptide-encoding DNA abundance (4.5 h post-induction vs induction); higher = less antimicrobial activity (less host growth inhibition)
Settings: time post-induction: 4.5 h; library: site-saturation at positions 5, 18, 19, 20
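Also: peptides expressed intracellularly from a pBAD plasmid library in pooled LB shake-flask culture, induced with 0.3% L-arabinose, DNA abundance read by NGS, three biological replicates, DESeq2 with apeglm shrinkage.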

| Sequence | shrunken log2 fold change |
| --- | --- |
| RRIRVRPPRLPRPRPRPYVWPRP | -0.567 |
| RRIRVRPPRLPRPRPRPYWHPRP | -0.636 |
| RRIRVRPPRLPRPRPRPYWLPRP | -0.411 |
| RRIRVRPPRLPRPRPRPYYQPRP | -0.245 |
| RRIRVRPPRLPRPRPRPYYSPRP | -0.235 |
| RRIRVRPPRLPRPRPRPYYVPRP | -1.97 |
| RRIRWRPPRLPRPRPRPACCPRP | 0.454 |
| RRIRWRPPRLPRPRPRPADGPRP | 0.0472 |
| RRIRWRPPRLPRPRPRPADIPRP | 0.0169 |
| RRIRWRPPRLPRPRPRPADPPRP | 0.372 |
| RRIRWRPPRLPRPRPRPADYPRP | -0.123 |
| RRIRWRPPRLPRPRPRPAFAPRP | 1.23 |
| RRIRWRPPRLPRPRPRPAFYPRP | 0.371 |
| RRIRWRPPRLPRPRPRPAGEPRP | 0.432 |
| RRIRWRPPRLPRPRPRPAHTPRP | -0.172 |
| RRIRWRPPRLPRPRPRPAKPPRP | 0.0169 |
| RRIRWRPPRLPRPRPRPALDPRP | 0.553 |
| RRIRWRPPRLPRPRPRPALTPRP | 0.393 |
| RRIRWRPPRLPRPRPRPALWPRP | 0.53 |
| RRIRWRPPRLPRPRPRPAMTPRP | 0.299 |
| RRIRWRPPRLPRPRPRPANDPRP | -0.0438 |
| RRIRWRPPRLPRPRPRPANHPRP | -0.262 |

| Sequence | shrunken log2 fold change |
| --- | --- |
| RRIRWRPPRLPRPRPRPANIPRP | -0.884 |
| RRIRWRPPRLPRPRPRPANTPRP | -0.0364 |
| RRIRWRPPRLPRPRPRPAPLPRP | 0.512 |
| RRIRWRPPRLPRPRPRPAQDPRP | 0.415 |
| RRIRWRPPRLPRPRPRPAQVPRP | 0.565 |
| RRIRWRPPRLPRPRPRPARDPRP | 0.377 |
| RRIRWRPPRLPRPRPRPASFPRP | -0.0603 |
| RRIRWRPPRLPRPRPRPAVKPRP | -0.197 |
| RRIRWRPPRLPRPRPRPAWHPRP | 0.162 |
| RRIRWRPPRLPRPRPRPAWQPRP | 0.427 |
| RRIRWRPPRLPRPRPRPAWVPRP | 0.378 |
| RRIRWRPPRLPRPRPRPCAAPRP | 1.32 |
| RRIRWRPPRLPRPRPRPCAQPRP | 0.162 |
| RRIRWRPPRLPRPRPRPCDPPRP | 0.0863 |
| RRIRWRPPRLPRPRPRPCFVPRP | -0.144 |
| RRIRWRPPRLPRPRPRPCFWPRP | 0.213 |
| RRIRWRPPRLPRPRPRPCGAPRP | 0.525 |
| RRIRWRPPRLPRPRPRPCGHPRP | 0.108 |
| RRIRWRPPRLPRPRPRPCGYPRP | 0.14 |
| RRIRWRPPRLPRPRPRPCHVPRP | -0.437 |
| RRIRWRPPRLPRPRPRPCIHPRP | -0.0458 |
| RRIRWRPPRLPRPRPRPCLVPRP | 0.144 |

| Sequence | shrunken log2 fold change |
| --- | --- |
| RRIRWRPPRLPRPRPRPCMHPRP | -0.0533 |
| RRIRWRPPRLPRPRPRPCMRPRP | 0.506 |
| RRIRWRPPRLPRPRPRPCMVPRP | -0.155 |
| RRIRWRPPRLPRPRPRPCPIPRP | -0.204 |
| RRIRWRPPRLPRPRPRPCQIPRP | -0.0592 |
| RRIRWRPPRLPRPRPRPCRHPRP | 0.0955 |
| RRIRWRPPRLPRPRPRPCRKPRP | -0.0352 |
| RRIRWRPPRLPRPRPRPCRLPRP | 0.0377 |
| RRIRWRPPRLPRPRPRPCRVPRP | 0.103 |
| RRIRWRPPRLPRPRPRPCSGPRP | -0.0411 |
| RRIRWRPPRLPRPRPRPCTHPRP | 0.0298 |
| RRIRWRPPRLPRPRPRPCTNPRP | -0.0757 |
| RRIRWRPPRLPRPRPRPCTQPRP | -0.177 |
| RRIRWRPPRLPRPRPRPCTYPRP | -0.473 |
| RRIRWRPPRLPRPRPRPCVFPRP | 0.309 |
| RRIRWRPPRLPRPRPRPCVMPRP | 0.0583 |
| RRIRWRPPRLPRPRPRPCVQPRP | 2.8 |
| RRIRWRPPRLPRPRPRPCVYPRP | -0.00208 |
| RRIRWRPPRLPRPRPRPCWVPRP | -0.116 |
| RRIRWRPPRLPRPRPRPCYDPRP | -0.00133 |
| RRIRWRPPRLPRPRPRPCYLPRP | -0.33 |
| RRIRWRPPRLPRPRPRPDAGPRP | 0.485 |

| Sequence | shrunken log2 fold change |
| --- | --- |
| RRIRWRPPRLPRPRPRPDAQPRP | 1.48 |
| RRIRWRPPRLPRPRPRPDDAPRP | 0.368 |
| RRIRWRPPRLPRPRPRPDFGPRP | -0.0549 |
| RRIRWRPPRLPRPRPRPDFNPRP | -0.0747 |
| RRIRWRPPRLPRPRPRPDGWPRP | 1.12 |
| RRIRWRPPRLPRPRPRPDIQPRP | 0.27 |
| RRIRWRPPRLPRPRPRPDKGPRP | 0.0389 |
| RRIRWRPPRLPRPRPRPDKKPRP | -0.0507 |
| RRIRWRPPRLPRPRPRPDKMPRP | -0.0535 |
| RRIRWRPPRLPRPRPRPDKYPRP | -0.126 |
| RRIRWRPPRLPRPRPRPDLCPRP | 0.777 |
| RRIRWRPPRLPRPRPRPDLDPRP | 0.311 |
| RRIRWRPPRLPRPRPRPDMTPRP | 0.216 |
| RRIRWRPPRLPRPRPRPDPPPRP | 0.575 |
| RRIRWRPPRLPRPRPRPDQCPRP | 0.25 |
| RRIRWRPPRLPRPRPRPDQIPRP | 0.134 |
| RRIRWRPPRLPRPRPRPDQMPRP | 0.128 |
| RRIRWRPPRLPRPRPRPDRFPRP | 0.0986 |
| RRIRWRPPRLPRPRPRPDSAPRP | 0.139 |
| RRIRWRPPRLPRPRPRPDSGPRP | -0.0735 |
| RRIRWRPPRLPRPRPRPDTWPRP | 0.0829 |
| RRIRWRPPRLPRPRPRPDVEPRP | 0.182 |

| Sequence | shrunken log2 fold change |
| --- | --- |
| RRIRWRPPRLPRPRPRPDWFPRP | 0.147 |
| RRIRWRPPRLPRPRPRPDWIPRP | -0.0204 |
| RRIRWRPPRLPRPRPRPDYAPRP | -0.0174 |
| RRIRWRPPRLPRPRPRPDYGPRP | -0.202 |
| RRIRWRPPRLPRPRPRPEAHPRP | 0.219 |
| RRIRWRPPRLPRPRPRPECDPRP | 1.93 |
| RRIRWRPPRLPRPRPRPECEPRP | 0.912 |
| RRIRWRPPRLPRPRPRPEDNPRP | 0.547 |
| RRIRWRPPRLPRPRPRPEDYPRP | -0.00903 |
| RRIRWRPPRLPRPRPRPEEGPRP | -0.00968 |
| RRIRWRPPRLPRPRPRPEFAPRP | 1.02 |
| RRIRWRPPRLPRPRPRPEGFPRP | 0.192 |
| RRIRWRPPRLPRPRPRPEHCPRP | 0.177 |
| RRIRWRPPRLPRPRPRPEHEPRP | 0.623 |
| RRIRWRPPRLPRPRPRPEHFPRP | 0.00426 |
| RRIRWRPPRLPRPRPRPEHMPRP | -0.122 |
| RRIRWRPPRLPRPRPRPEIQPRP | 0.685 |
| RRIRWRPPRLPRPRPRPELIPRP | 1.56 |
| RRIRWRPPRLPRPRPRPELKPRP | 0.276 |
| RRIRWRPPRLPRPRPRPEMSPRP | -0.0114 |
| RRIRWRPPRLPRPRPRPENCPRP | 0.138 |
